Reference: the supplement of paper PMC9732359
± gives the uncertainty stated by the source.

test: protein stability index of a GFP-peptide fusion (yeast GPS) (PSI 1-4); higher = more stable; sorted into four equal gates, so the index is relative within each strain; details: doa10∆
Method in brief: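 Peptides tiling yeast proteins in 17-residue segments were fused downstream of GFP, with Cherry expressed from the same plasmid. As a pooled library in yeast, mid-log cultures grown in leucine-free medium were sorted into four equal gates by GFP/Cherry fluorescence ratio. Gate plasmids were PCR-amplified and Illumina-sequenced, and barcodes linked reads to strains. Each peptide received a protein stability index equal to the sum of each gate's read frequency times its gate number.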

| Sequence | protein stability index |
| --- | --- |
| SALELVGQLNKVVDQLF [RPN6] | 2.84 ± 0.045 |
| SANGYLNATTAMDLAQM [BRR2] | 3.23 ± 0.17 |
| SASFSLKNGDKPHMLKF [RPL6A] | 2.81 ± 0.083 |
| SASLFKQRKNPRRIAWT [RPL24A] | 2.55 ± 0.11 |
| SASSLVITALKEPPRDR [RPL12A] | 2.83 ± 0.062 |
| SATPNAAAFSQQQNASS [GAL11] | 2.94 ± 0.063 |
| SATSTTEQTKSKNPLSL [YLR335W/NUP2] | 2.95 ± 0.04 |
| SCHGHFGHLKLALPVFH [RPO31] | 1.44 ± 0.054 |
| SDDIAENDNLDNVSKNA [YCG1] | 3.39 ± 0.088 |
| SDEEESVLDEQEQYQTN [SNU114] | 3.11 ± 0.14 |
| SDIESANNQEYDLNFKL [SMC1] | 3.12 ± 0.29 |
| SDIVLDKKVTLITSEMF [SIN4] | 1.69 ± 0.085 |
| SDKESNAYGFIEWCSRC [YJL039C/NUP192] | 2.98 ± 0.066 |
| SDKQRRLLAKDAMIAQR [DIS3] | 2.29 ± 0.056 |
| SDLLVAPPLENENSNCL [YML103C/NUP188] | 3 ± 0.095 |
| SDNISRKYEISFGKIYV [RPB2] | 2.79 ± 0.059 |
| SDNSEEEEVDIDMDKLN [RRP43] | 3.25 ± 0.069 |
| SDNVYLKLLVKLYTFLA [RPL18A] | 2.12 ± 0.098 |
| SDPESERPAIEFETPTF [RPN14] | 3.13 ± 0.054 |
| SDRSLSEDLFADGLLQV [BRR2] | 3.04 ± 0.28 |
| SDSNANAAVAGVANTDT [SWI3] | 3.28 ± 0.063 |
| SDSSKPAFSFGTKSNEK [YJL041W/NSP1] | 2.97 ± 0.073 |
| SDTLKEFKIEQNNEQNP [YDL116W/NUP84] | 2.79 ± 0.23 |
| SDVSDFEGWGHEYIRHL [RPN1] | 3.07 ± 0.15 |
| SEDHSFRKIKLRVDEVQ [RPS1A] | 3.1 ± 0.12 |

| Sequence | protein stability index |
| --- | --- |
| SEDHSFRKVKLRVDEVQ [RPS1B] | 3.05 ± 0.094 |
| SEEINQYVTQIEQEKQE [PRE6] | 2.68 ± 0.075 |
| SEEVDDLSMVPKMKDEE [SNF2] | 2.78 ± 0.17 |
| SEKNKRQSKSSGKSNTS [ITC1] | 3.06 ± 0.094 |
| SENAPSASSKEFNFTNL [YAR002W/NUP60] | 2.83 ± 0.052 |
| SEQKMKEDADLKRMEIL [SIR4] | 2.99 ± 0.066 |
| SERDSKDRYINGDKKVD [YMR129W/POM152] | 3.08 ± 0.14 |
| SETPLQKTVNLKNIMKV [RPN4] | 2.25 ± 0.08 |
| SETREKELESIDVLLEQ [RPB4] | 3.04 ± 0.13 |
| SEVANNGLIISWSNGKI [RRP42] | 2.28 ± 0.13 |
| SEYKVAFPHLYNSRPRS [PRP8] | 2.91 ± 0.071 |
| SFAKLVPCEGKDVTQGL [SMC2] | 1.62 ± 0.08 |
| SFATATCVTCHWNLPGE [SIR2] | 1.64 ± 0.068 |
| SFDVAISTACPRLDDVV [SMC4] | 3.12 ± 0.083 |
| SFFHQSNMQKSLLPYYH [RPN3] | 1.66 ± 0.037 |
| SFGNREEFINKLVKAMN [RPL7B] | 2.03 ± 0.13 |
| SFGNREEFINKLVKSMN [RPL7A] | 2.52 ± 0.11 |
| SFLEGSKALNSILESSM [RGR1] | 1.81 ± 0.19 |
| SFLESVIRDSVTYTEHA [HHF1] | 2.82 ± 0.077 |
| SFLGYLRYVKQIEGPFL [ISW2] | 2.28 ± 0.061 |
| SFPILDQCVGQVGLNFE [YMR129W/POM152] | 3.07 ± 0.083 |
| SFRIKQKMAKAKKQNRP [RPL39] | 2.47 ± 0.17 |
| SFSLTTFSPSGKLGQID [PRE8] | 3 ± 0.14 |
| SFSLTVSKEQFLKDADV [YJL039C/NUP192] | 1.47 ± 0.041 |
| SFTLLNQLSQTNKLLFK [NUT1] | 2.81 ± 0.09 |

| Sequence | protein stability index |
| --- | --- |
| SFTYELKQHNQNNLPPN [BRR2] | 2.95 ± 0.094 |
| SFVFGQAAAKPSLEKSS [YLR335W/NUP2] | 1.79 ± 0.1 |
| SGEDTNVGLPILKSLKN [YOR098C/NUP1] | 2.95 ± 0.1 |
| SGGGDSEVQRTMLELLN [RPT6] | 3.22 ± 0.18 |
| SGGNNTATIINNESSDD [PCI8] | 2.63 ± 0.091 |
| SGHDDLVHDVVYDFYGR [YGL100W/SEH1] | 2.49 ± 0.068 |
| SGKARICIVGGYDDFQE [FAS2] | 2.91 ± 0.15 |
| SGMGPDYRVLVDKSRKV [PRE8] | 3 ± 0.14 |
| SGQTPVQSKARYTVRTF [RPL11A] | 2.29 ± 0.094 |
| SHDKKTKCSTVVKASEL [SRP14] | 3.02 ± 0.18 |
| SHSLALNEITNSKVNKL [DSN1] | 2.33 ± 0.04 |
| SHTDQPANVLLVQSLND [NNF1] | 2.07 ± 0.071 |
| SIFAMGLCGAGTNNARL [RPN1] | 2.44 ± 0.058 |
| SIFEDAIKELNYNRIAK [NUT1] | 2.79 ± 0.13 |
| SIGSDILTAEKMRGNGN [RRP4] | 3.21 ± 0.097 |
| SIIGNKNNNYTWEECVF [REC8] | 2.78 ± 0.15 |
| SILDDIKLSLKDKTKNI [SMC4] | 2.88 ± 0.06 |
| SILEEKIAVLNNDKREI [SMC1] | 3.21 ± 0.071 |
| SILGKFCPIVEEIVSNS [YCS4] | 1.95 ± 0.091 |
| SIMPDLYFYRNPEEVEQ [RPS0B] | 2.86 ± 0.082 |
| SIMVELKLPLEINYAFS [SIR3] | 1.31 ± 0.077 |
| SIPNLFPTDLEIFQLFT [SWI1] | 2.6 ± 0.14 |
| SIVEECDARFDEKTIEE [RPC17] | 2.98 ± 0.14 |
| SIVHINSQERVQDLGSA [SIR2] | 2.65 ± 0.069 |
| SKALLREISNFSKGDAD [SRP72] | 3.06 ± 0.26 |

| Sequence | protein stability index |
| --- | --- |
| SKAQQKTAEQVAAERAA [RPL7A] | 2.84 ± 0.064 |
| SKASMQKEQNVNNRDSE [YCS4] | 2.78 ± 0.069 |
| SKDGLPNKVKTEDIRIR [RRP6] | 2.67 ± 0.063 |
| SKDVQQIDYKLESFQAV [RPS7A] | 2.89 ± 0.053 |
| SKEDYETLKRDRKQSQA [ARP7] | 2.79 ± 0.071 |
| SKEETVDFIKHSLSQAI [PRE3] | 2.56 ± 0.065 |
| SKEFSAYVSGLFEIYRD [YJR042W/NUP85] | 1.76 ± 0.093 |
| SKELRAQYGIKALPIRR [RPL26A] | 3.44 ± 0.19 |
| SKKGSLENNIREFPEYF [RPL10] | 2.95 ± 0.12 |
| SKKISNTAAALVSLLDE [YAR002W/NUP60] | 2.9 ± 0.095 |
| SKKIVPSPKKVAIDQDK [SIR4] | 2.73 ± 0.078 |
| SKKRQAEKLVPLPICHA [YML031W/NDC1] | 2.33 ± 0.12 |
| SKLLVPQKNVKIQVVDR [PRE10] | 3.02 ± 0.074 |
| SKMSDESFAELMTKLNS [RPC17] | 3.29 ± 0.12 |
| SKQVTDYYQSIYAKYGA [FAS2] | 2.73 ± 0.051 |
| SKRSKIDIINKLILHAI [YML103C/NUP188] | 1.23 ± 0.13 |
| SKSPSEWQDIIHQREQE [CSE2] | 3.33 ± 0.16 |
| SKTWETYEMRIHKRYID [RPS20] | 2.45 ± 0.13 |
| SKVTVPPSKHSTLTLSD [ESC2] | 3.29 ± 0.12 |
| SKYCEKSLPLLITVMEK [YCS4] | 1.76 ± 0.052 |
| SKYLIKQIDIPNFNVEI [ECM29] | 1.57 ± 0.069 |
| SLAVRSLQDRSSLVRRN [YCS4] | 2.4 ± 0.041 |
| SLFHTAVSVANGFMHAG [RPN2] | 1.18 ± 0.087 |
| SLFTYFREAIVATEPLL [PRP8] | 1.82 ± 0.048 |
